Values quoted from earlier work as cited in publication PMC3601010, “The complete N-terminal extension of heparin cofactor II is required for maximal effectiveness as a thrombin exosite 1 ligand” (BMC Biochemistry, 2013).

Target: T1, thrombin (Homo sapiens, UniProt P00734)
T1 construct: purchased Enzyme Research, South Bend, IN; host or cells: HCII 1-75 probe made in house in E. coli TOP10
Details: heparin, heparan sulfate, or dermatan sulfate; ref [7]-[11]
Excerpt: Heparin cofactor II (HCII) is a 66 kDa plasma protein and member of the serpin superfamily of protease inhibitors (reviewed in [3]). It regulates the key coagulation protease thrombin by trapping it in a covalently-linked denaturation-resistant complex. Thrombin-complexed HCII is cleaved at its reactive center peptide bond, while thrombin in the inhibitory complex, by analogy to enzymes in other serpin-enzyme complexes, is conformationally inactivated by active site distortions that render it incapable of completing the catalytic cycle of a proteolytic enzyme. The r ...

B1: HCII: 66 kDa plasma protein and member of the serpin superfamily of protease inhibitors (protein, UniProt P05546 20-499, looked up)
Heparin cofactor 2: GSKGPLDQLEKGGETAQSADPQWEQLNNKNLSMPLLPADFHKENTVTNDWIPEGEEDDDYLDLEKIFSEDDDYIDIVDSLSVSPTDSDVSAGNILQLFHGKSRIQRLNILNAKFAFNLYRVLKDQVNTFDNIFIAPVGISTAMGMISLGLKGETHEQVHSILHFKDFVNASSKYEITTIHNLFRKLTHRLFRRNFGYTLRSVNDLYIQKQFPILLDFKTKVREYYFAEAQIADFSDPAFISKTNNHIMKLTKGLIKDALENIDPATQMMILNCIYFKGSWVNKFPVEMTHNHNFRLNEREVVKVSMMQTKGNFLAANDQELDCDILQLEYVGGISMLIVVPHKMSGMKTLEAQLTPRVVERWQKSMTNRTREVLLPKFKLEKNYNLVESLKLMGIRMLFDKNGNMAGISDQRIAIDLFKHQGTITVNEEGTQATTVTTVGFMPLSTQVRFTVDRPFLFLIYEHRTSCLLFMGRVANPSRS
modifications: plasma-derived
  increase of thrombin inhibition rate by GAGs: three to four orders of magnitude
